Experimental data reported in article PMC2944331, “Similarity of Recombinant Human Perlecan Domain 1 by Alternative Expression Systems Bioactive Heterogenous Recombinant Human Perlecan D1” (BMC Biotechnology, 2010).

Experiments:
Experiment in all cases: far-Western, overlay or dot blot; growth factor dot blot: 500 ng growth factor bound to nitrocellulose; 1 μg/ml rhPln.198, rhPln.247 or heparinase III digested rhPln.247 in PBS-Tween overnight at 4°C; detected with anti-perlecan domain 1 mAb CSI 001-71
Settings in all cases: both partners purified
[1] = biological target: T1, recombinant human perlecan domain 1, amino acids 1-247 (rhPln.247), enriched high Mr glycosylated pool (human, UniProt P98160 22-247, glycosaminoglycan chains, either heparan sulfate (about 1/3 of the pool) or chondroitin sulfate (about 2/3), at the three SGD linkage sites)
T1 construct: signal peptide in the construct; Heterogeneous proteoglycan pool; also called rhPln.D1; Pln.D1
T1 sequence (P98160 22-247): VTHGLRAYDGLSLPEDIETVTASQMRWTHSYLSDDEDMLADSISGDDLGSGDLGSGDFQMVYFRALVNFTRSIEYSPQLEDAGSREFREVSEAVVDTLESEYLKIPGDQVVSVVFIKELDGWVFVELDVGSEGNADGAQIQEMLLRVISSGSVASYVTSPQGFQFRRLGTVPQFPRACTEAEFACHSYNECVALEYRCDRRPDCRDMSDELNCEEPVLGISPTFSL

[2] = biological target: T2, recombinant human perlecan domain 1, amino acids 1-198 (rhPln.198), enriched high Mr glycosylated pool (human, UniProt P98160 22-198, glycosaminoglycan chains, either heparan sulfate (about 1/3 of the pool) or chondroitin sulfate (about 2/3), at the three SGD linkage sites)
T2 construct: signal peptide in the construct; Heterogeneous proteoglycan pool with minor contaminants (bovine lumican, haemoglobin, BSA); also called rhPln.D1; Pln.D1
T2 sequence (P98160 22-198): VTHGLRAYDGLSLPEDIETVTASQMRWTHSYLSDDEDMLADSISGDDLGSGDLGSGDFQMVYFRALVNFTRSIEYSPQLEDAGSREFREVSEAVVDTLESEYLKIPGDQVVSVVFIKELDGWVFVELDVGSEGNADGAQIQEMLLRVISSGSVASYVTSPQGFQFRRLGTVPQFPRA

[3] = biological target: T3, rhPln.247 digested with heparinase III (human, UniProt P98160 22-247, heparan sulfate chains digested with heparinase III; chondroitin sulfate chains not digested)
T3 construct: signal peptide in the construct; Same polypeptide as m2; Only the glycosaminoglycan chains differ; also called heparinise III digested rhPln.247; rhPln.247 pre-digested with heparinase III; source: HEK 293 cells, enriched high Mr pool, then digested with heparinase III (1 mU/μg, overnight, 37°C)
T3 sequence (P98160 22-247): as the sequence (P98160 22-247) above

Measured: binding result

B1: recombinant human bone morphogenetic protein 6 (rhBMP-6) (ligand)
chain: SASSRRRQQSRNRSTQSQDVARVSSASDYNSSELKTACRKHELYVSFQDLGWQDWIIAPKGYAANYCDGECSFPLNAHMNATNHAIVQTLVHLMNPEYVPKPCCAPTKLNAISVLYFDDNSNVILKKYRNMVVRACGCH
notes: human bone morphogenetic protein 6, recombinant
binds: all assays above

B2: recombinant human bone morphogenetic protein 7 (rhBMP-7) (ligand)
chain: STGSKQRSQNRSKTPKNQEALRMANVAENSSSDQRQACKKHELYVSFRDLGWQDWIIAPEGYAAYYCEGECAFPLNSYMNATNHAIVQTLVHFINPETVPKPCCAPTQLNAISVLYFDDSSNVILKKYRNMVVRACGCH
notes: human bone morphogenetic protein 7, recombinant
binds: all assays above
